Values quoted from earlier work as cited in patent US20220017621A1, “Combination Therapy for Cancer” (Merck Patent GmbH, priority 2016, published 2022).

Target: TGFβ1 (Homo sapiens, UniProt P01137)
Details: binding of TGFβ1

TGFβ1, sequence (P01137 279-390 limits assumed, species assumed): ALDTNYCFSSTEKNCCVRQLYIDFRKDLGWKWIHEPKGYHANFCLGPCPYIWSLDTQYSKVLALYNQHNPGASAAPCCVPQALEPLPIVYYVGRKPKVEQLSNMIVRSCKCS

B1: recombinant soluble TGFβRII: recombinant soluble extracellular domain of TGFβRII, from the literature (Lin et al.) (protein, UniProt P37173 23-166, looked up)
extracellular domain: TIPPHVQKSVNNDMIVTDNNGAVKFPQLCKFCDVRFSTCDNQKSCMSNCSITSICEKPQEVCVAVWRKNDENITLETVCHDPKLPYHDFILEDAASPKCIMKEKKKPGETFFMCSCSSDECNDNIIFSEEYNTSNPDLLLVIFQ
modifications: extracellular domain
Kd: 0.2 nM
